What was measured:
[1] = target: T1, NKG2A/CD94 on CHO cells (CHOK1-NKG2A-CD94) (human, UniProt P26715 1-233; Q13241 1-179, limits assumed); assay: FACS on CHO cells over-expressing human NKG2A (FIG. 45F)
T1 construct: whole, on cells; also called CHO cells over-expressing NKG2A/CD94; CHO cell line over expressing ectopic NKG2A
Method: (§1) Then wash the cells 3 times with 170 µL FACS buffer. Re-suspend the cells at 100 µL/well with secondary antibody (goat anti-human Ig Fab-FITC, Cat # 2085-02, Southern biotech) with 1:400 dilution and incubate the plate for 30 min at 4° C. in dark. Centrifuge the plate at 2000 rpm, 4° C. for 5 min and discard supernatant. Then wash the cells 3 times with FACS buffer and analyze the sample with FACS verse. The fluorescence intensity of the staining was measured using flow cytometer (BD, FACSVerse). The geometric mean fluorescence intensity (GMFI; median fluorescence intensity (MFI)) of set antibodies staining was calculated (BD FACSuite software). Dose-response curves were generated and EC50s for thetrispecific variants binding were calculated using GraphPad Prism software.
Results: The expressed trispecific constructs were analyzed for their binding to cells expressing endogenous CD3ε, 5T4 and NKG2A/NKG2D. […] (FIG. 45F).

NKG2A-CD94-ECD-hFc [2] = target: T2, NKG2A-CD94-ECD-hFc (human, UniProt P26715 94-233; Q13241 32-179, limits assumed); assay: ELISA on coated NKG2A-CD94-ECD-hFc (FIG. 43D), reference IM-1062
T2 construct: extracellular domain; Lot 20200724002, 'provided by CP'; the two-chain layout here is only the reading of the name; also called human NKG2A (recombinant); NKG2A antigen; not shown: human Fc (hFc)
Method: Methods: ELISA binding of Tribody/ProTribody antibody constructs to antigens: Dilute target protein (hCD3epsilon-His (cat # 10977-H08S, supplier Sino Biological); h5T4-His (cat# 19845-H08H, supplier Sino Biological); NKG2A-CD94-ECD-hFc, Lot:20200724002, provided by CP; or NKG2D-ECD-hFc, Lot: 20200413002, provided by CP) into PBS with final concentration of 0.01 µg/mL for hCD3epsilon-His, 0.3 µg/mL for h5T4-His, 1 µg/mL for NKG2A-CD94-ECD-hFc and 0.7 µg/mL for hNKG2D-ECD-hFc respectively and coat 100 µL/well on ELISA plate (cat: 9018, supplier Corning) respectively. Incubate O/N, 4° C. The plates were blocked with 250 µL 1% BSA in PBST for 1 hr at 37° C.Wash 4 times with PBST. All the washes are done using Biotek (Elx 405). All the Tribody set antibodies were diluted to 400 nM and make 4-fold serially dilutions (12 points, including 0 point). Add 100 µL/well diluted antibody constructs solution to plate, incubate for 1 hr at 37° C.Wash 4 times with PBST. Add 100 µL/well anti-human kappa light chain-HRP (1:10000), incubate for 0.5 hr at 37° C. Wash 4 times with PBST. 100 µL/well of TMB substrate was added and incubated at room temperature for 5 min. 100 µL/well of 1N HCl to terminate reaction. Plates were read using ELISA plate reader at 450 nm wavelength (instrunet SpectraMax M5e). […]

[3] = target: T1, NKG2A/CD94 on CHO cells …; assay: FACS on CHO cells over-expressing human NKG2A (FIG. 45F), reference IM-1062
Method: as §1, with “Suspension cultured cells was harvested directly, and adherent cell were digested using TrypLE Express Enzyme (cat: 12604-013, supplier Life technologies). Centrifuge at 1000 rpm for 5 min and discard the supernatant. Cells are suspended at a concentration of 2×10⁶/mL in FACS buffer (2% FBS in PBS) and add 100 µL/well of cell suspension to the plate (cat #3799, supplier Corning). Centrifuging the plates at 2000 rpm for 5 min and discard the supernatant. Re-suspend the cells in 100 µL/well of Tribody set antibodies (400 nM start, 4-fold dilution, 8 point including 0 point) and incubate the plate for 60 min at 4° C. Centrifuge the plate at 2000 rpm, 4° C. for 5 min and discard supernatant. Then” for “Then”, “Then wash the cells 3 times with FACS buffer and analyze the sample with FACS verse.” left out

NKG2A-CD94-ECD-hFc [4] = target: T2, NKG2A-CD94-ECD-hFc; assay: ELISA on coated NKG2A-CD94-ECD-hFc (FIG. 43D)
Method: Methods: ELISA binding of Tribody/ProTribody antibody constructs to antigens: Dilute target protein (hCD3epsilon-His (cat # 10977-H08S, supplier Sino Biological); h5T4-His (cat# 19845-H08H, supplier Sino Biological); NKG2A-CD94-ECD-hFc, Lot:20200724002, provided by CP; or NKG2D-ECD-hFc, Lot: 20200413002, provided by CP) into PBS with final concentration of 0.01 µg/mL for hCD3epsilon-His, 0.3 µg/mL for h5T4-His, 1 µg/mL for NKG2A-CD94-ECD-hFc and 0.7 µg/mL for hNKG2D-ECD-hFc respectively and coat 100 µL/well on ELISA plate (cat: 9018, supplier Corning) respectively. Incubate O/N, 4° C. The plates were blocked with 250 µL 1% BSA in PBST for 1 hr at 37° C.Wash 4 times with PBST. All the washes are done using Biotek (Elx 405). All the Tribody set antibodies were diluted to 400 nM and make 4-fold serially dilutions (12 points, including 0 point). Add 100 µL/well diluted antibody constructs solution to plate, incubate for 1 hr at 37° C.Wash 4 times with PBST. Add 100 µL/well anti-human kappa light chain-HRP (1:10000), incubate for 0.5 hr at 37° C. Wash 4 times with PBST. 100 µL/well of TMB substrate was added and incubated at room temperature for 5 min. 100 µL/well of 1N HCl to terminate reaction. Plates were read using ELISA plate reader at 450 nm wavelength (instrunet SpectraMax M5e). Data Analysis was performed using Graphpad prism 5 software by using nonlinear regression (curve fit): log (agonist) vs. response, agonist is antibody concentration (nM) and response is OD value.

T1 sequence (P26715 whole entry, chain 1 of 2): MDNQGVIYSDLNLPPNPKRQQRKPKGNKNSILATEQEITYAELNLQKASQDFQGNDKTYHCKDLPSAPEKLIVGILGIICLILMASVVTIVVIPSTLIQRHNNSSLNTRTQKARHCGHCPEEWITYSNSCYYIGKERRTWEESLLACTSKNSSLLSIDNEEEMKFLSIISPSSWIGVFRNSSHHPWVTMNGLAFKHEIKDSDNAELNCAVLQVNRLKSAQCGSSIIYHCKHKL
T1 sequence (Q13241 whole entry, chain 2 of 2): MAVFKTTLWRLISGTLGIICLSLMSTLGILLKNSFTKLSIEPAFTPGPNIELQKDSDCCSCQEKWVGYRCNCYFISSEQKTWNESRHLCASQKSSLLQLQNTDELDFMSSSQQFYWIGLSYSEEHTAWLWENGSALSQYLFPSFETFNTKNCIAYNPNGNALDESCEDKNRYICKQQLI
T2 sequence (P26715 94-233 limits assumed, chain 1 of 2): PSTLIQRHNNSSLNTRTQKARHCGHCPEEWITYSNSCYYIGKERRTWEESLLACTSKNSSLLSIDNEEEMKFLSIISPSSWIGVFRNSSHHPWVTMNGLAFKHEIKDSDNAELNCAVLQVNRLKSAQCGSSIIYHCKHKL
T2 sequence (Q13241 32-179 limits assumed, chain 2 of 2): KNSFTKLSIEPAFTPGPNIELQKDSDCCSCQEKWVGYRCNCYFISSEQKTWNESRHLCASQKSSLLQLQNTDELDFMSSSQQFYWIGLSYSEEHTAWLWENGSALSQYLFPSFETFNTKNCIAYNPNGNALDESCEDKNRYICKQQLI

B1: IM-1272 bi-NKG2A scFv Tribody (other)
heavy: GGSGGSEVQLVESGGGLVQPGGSLRLSCAASGFTFNTYAMNWVRQAPGKGLEWVARIRSKYNNYATYYADSVKDRFTISRDDSKNTLYLQMNSLRAEDTAVYYCVRHGNFGNSYVSWFAYWGQGTMVTVSSASTKGPSVFPLAPSSKSTSGGTAALGCLVKDYFPEPVTVSWNSGALTSGVHTFPAVLQSSGLYSLSSVVTVPSSSLGTQTYICNVNHKPSNTKVDKRVEPKSCPPCGGGGSDIQMTQSPSSLSASVGDRVTITCRASENIYSYLAWYQQKPGKAPKLLIYNAKTLAEGVPSRFSGSGSGTDFTLTISSLQPEDFATYYCQHHYGTPRTFGGGTKVEIKGGGGSGGGGSGGGGSQVQLVQSGAEVKKPGASVKVSCKASGYTFTSYWMNWVRQAPGQGLEWMGRIDPYDSETHYAQKLQGRVTMTTDTSTSTAYMELRSLRSDDTAVYYCARGGYDFDVGTLYWFFDVWGQGTTVTVSSGGGGSDIQMTQSPSSLSASVGDRVTITCRASENIYSYLAWYQQKPGKAPKLLIYNAKTLAEGVPSRFSGSGSGTDFTLTISSLQPEDFATYYCQHHYGTPRTFGGGTKVEIKGGGGSGGGGSGGGGSQVQLVQSGAEVKKPGASVKVSCKASGYTFTSYWMNWVRQAPGQGLEWMGRIDPYDSETHYAQKLQGRVTMTTDTSTSTAYMELRSLRSDDTAVYYCARGGYDFDVGTLYWFFDVWGQGTTVTVSS
light: GGSGGSQAVVTQEPSLTVSPGGTVTLTCRSSTGAVTTSNYANWVQQKPGQAPRGLIGGTNKRAPGTPARFSGSLLGGKAALTLSGVQPEDEAEYYCALWYSNLWVFGGGTKLTVLGQPKAAPSVTLFPPSSEELQANKATLVCLISDFYPGAVTVAWKADSSPVKAGVETTTPSKQSNNKYAASSYLSLTPEQWKSHRSYSCQVTHEGSTVEKTVAPTECPPCSGGGSDIQMTQSPSSLSASVGDRVTITCRASQGISNYLAWFQQKPGKAPKSLIYRANRLQSGVPSRFSGSGSGTDFTLTISSLQPEDVATYYCLQYDDFPWTFGQGTKLEIKGGGGSGGGGSGGGGSGGGGSQVQLVQSGAEVKKPGASVKVSCKASGYTFTSFWMHWVRQAPGQGLEWMGRIDPNRGGTEYNEKAKSRVTMTADKSTSTAYMELSSLRSEDTAVYYCAGGNPYYPMDYWGQGTTVTVSS
notes: Tribody with anti-CD3 Fab, anti-5T4 scFv and two anti-NKG2A scFv in tandem
[1]
  EC50: 0.4 nM
NKG2A-CD94-ECD-hFc [2]
  fold improved binding affinity against IM-1062: ~60 fold
[3]
  fold improved binding affinity against IM-1062: ~80 fold
NKG2A-CD94-ECD-hFc [4]
  EC50: 0.2 nM

— patent US20230312753A1 (IMMUNORIZON, published 2023)
